Test results reported in a protein production outcome set (Wang et al. 2014).

Assay: label from the status in PepcDB records

Row | Sequence | protein production
1 | MPLHNLTRFPRLEFIGAPTPLEYLPRFSDYLGREIFIKRDDVTPMAMGGNKLRKLEFLAADALREGADTLITAGAIQSNHVRQTAAVAAKLGLHCVALLENPIGTTAENYLTNGNRLLLDLFNTQIEMCDALTDPNAQLEELATRVEAQGFRPYVIPVGGSNALGALGYVESALEIAQQCEGAVNISSVVVASGSAGTHAGLAVGLEHLMPESELIGVTVSRSVADQLPKVVNLQQAIAKELELTASAEILLWDDYFAPGYGVPNDEGMEAVKLLARLEGILLDPVYTGKAMAGLIDGISQKRFKDEGPILFIHTGGAPALFAYHPHV | failed
2 | MVLEVSDHQVLNDAEVAALLENFSSSYDYGENESDSCCTSPPCPQDFSLNFDRAFLPALYSLLFLLGLLGNGAVAAVLLSRRTALSSTDTFLLHLAVADTLLVLTLPLWAVDAAVQWVFGSGLCKVAGALFNINFYAGALLLACISFDRYLNIVHATQLYRRGPPARVTLTCLAVWGLCLLFALPDFIFLSAHHDERLNATHCQYNFPQVGRTALRVLQLVAGFLLPLLVMAYCYAHILAVLLVSRGQRRLRAMRLVVVVVVAFALCWTPYHLVVLVDILMDLGALARNCGRESRVDVAKSVTSGLGYMHCCLNPLLYAFVGVKFRERMWMLLLRLGCPNQRGLQRQPSSSRRDSSWSETSEASYSGL | not failed
3 | MSLQWECWPSLPCWRCFAASGRITLSIKRFTQNSRRHDMKITKINAIPLSYRLPEGKTVTMGVGSTIKRDAIIIRVETSEGITGYGEAHPGRSPGAITSLIHNTIAPMLIGMKATDCVGAWQRVHRMQLSSHGLGAGAALAISGIDMALWDIRGKAANMPLYELLGGSKRRIPAYAGGIALGYQPKESLAEEAQEYIARGYKALKLRIGDAARVDIERVRHVRKVLGDEVDILTDANTAYTMADARRVLPVLAEIQAGWLEEPFACNDFASYREVAKITPLVPIAAGENHYTRFEFGQMLDAGAVQVWQPDLSKCGGITEGIRIAAMASAYRIPINAHSSATGLNHAATIHFLAATENAGYFEACVSKFNPFRDMFGTSFEIGADGCVEPPDAPGLGIEVDESIFEKYPAVDGPGYVVKFEGHHHHHH | not failed
4 | SLATCIGEKIEDFKVGNLLGKGSFAGVYRAESIHTGLEVAIKMIDKKAMYKAGMVQRVQNEVKIHCQLKHPSILELYNYFEDSNYVYLVLEMCHNGEMNRYLKNRVKPFSENEARHFMHQIITGMLYLHSHGILHRDLTLSNLLLTRNMNIKIADFGLATQLKMPHEKHYTLCGTPNYISPEIATRSAHGLESDVWSLGCMFYTLLIGRPPFDTDTVKNTLNKVVLADYEMPSFLSIEAKDLIHQLLRRNPADRLSLSSVLDHPFMSRNSSTKSKDEG | not failed
5 | MHTLNLGILAHVDAGKTSLTERLLHTVGVIDEIGSVDEGNTQTDSLALERQRGITIKSAVVSFAINDTTVNLIDTPGHPDFIAEVERVLSVLDGAVLVVSAVEGVQAQTRVLLRTLQRLRIPTLLFVNKIDRGGAGEERVLRAIAARLTPAIVPMGRAAGPGSRDARFIPYEAHDPGFGARLLDVLTEHDEELLAAYVKDTVSYGRLRTALVEQTRQALVHPVFFGSATTGAGVPELIAGIKELLPAAEGDPDGPVSGTVFKVERGPAGEKIAYARLFSGTVRTRDRLLFRDGEEGKVTAISVFDQGSAVREASVAAGRIGKLWGLAEIRIGDTFGEVPKAAEPSRHFSPPTLETVVVPGGRSDGGALHLALTQLAEQDPLINMRQDEIRREISLSLYGEVQKEVIQATLADAFGLDVTFRETTPICVERPVGTGAAVEFNGKGPHPFLATVGLRVEAAPVGSGVEFRLEVELGAMPYAFFKAVEDTVRETLGQGIHGWRVTDCTVTMTHSGYSPRQSHAHQGFDKSMSSTGADFRGLTPLVLMDALRQAGTRVHEPLHRFGLEAPADTLGAVLPVLAGLRAVVRTTRMREAVCVLEGLVPAAHVHELGQVLPGLTRGEGELETAFDHYAPVAGGTVPNRPRTDHNPLDRKEYLLNVTRRVGT | failed
6 | MDVTVSTDDGYRVNNLGLMSSRQNYMIFGGFVAIAGIIIVLVGEKFKPSANSVKCPYCAELISAEAVKCKHCGSDVTPSKTIVSADDAEASDRLADVNVKLIAGVVLAVFAAIIGAIIFHRQ | failed
7 | ARNAEAEGRLVRECRELLERHAFEELTVPDIAECLGVSVRTLQTALRAETGATPSELLRSIRLDRAREMLLEANPREQSVTAVAEQCGFTHQGRFSALYVKAFGELPSESLRR | failed
8 | MGQQELAFGGGEFHSLWSCRFGAATLARRGCAFRNALAIMRGFPSALAGVRRTMHTLQQLRSGELAGATRLDLSCGLREFPREIFELADSLEVLNLSGNALDSLPDDLGRLHRLKVLFCSANDFDELPAAVGDCPALSMVGFKSNRIERVPAAALPPALRWLILTDNRIATLPEELGRRPLQKLMLAGNRLEALPESMAACEGLELLRIAANRFQRLPAWLATLPRLAWLAYAGNPLCRLPALADSGIAALDWSELSLDGLIGEGASGVIHRAGWHQPDGSTRTVALKLFKGEVTSDGTPASEMAACLAAGRHAQLIEVLGQLAGHPQGRDGLVLELLDDAYRNLAGPPSLESCTRDVYPPGLRFELATALRLAASLAALMAHLHGRGISHGDFYAHNILWREDGACLLGDFGAASFLPDDAVLAGALRRLEVRAFACLLEELLERSEAPPGQASLSAALVELQRRCALPRVSERPDFGEIQAILRDLAARSQAFPQVR | failed
9 | MSKVIYKISIDLGGIVKRNFEKETKNCGKVNEEVLFKILKSNDKSEIGIKFKFKDIKSIRQFKDSVPITEYKDYEKYINRMADGEGNVLMSEKVEYFGHTSGTTGKQKLVPCTKNSRRRASKYMALLVNRFCYDNFKENWNYARGMMIADIVMTTYTKGKIPICSATSGGMKGIKHLLPYLYTSPIEVMEIKDKETALYLHLLFGLEEEELLYISGVFISNILDLFRTLEKNNKALVRDIQKGSISEELNIDEGLRKVLNKKLKPNNKRAMELEKEFKKGFKGIAKRIWPNLLYIASVTGANFSIYNDKVYYYIDSIPIYSAAYGSTEAMIGINPYASKVLYVITPSAVFYEFIPIGEKGEESFDTLLLSELKLGGRYEVVITNYAGLYRYKIGDVVKVVGFYNKCPEIEFLYRKNQVLNMAAEKTNEEHLTYAIKNTIKKLNLDLVDYTTEPDNSITPGRYIFYFEFRNNMYGFSTEKLQNILDDELRVSNLAYNRARNNKKLGMLKVEVLAPNTFDLIKEALFNKGISKNQIKIPRVIINNKIVMDIINRNKIKFVKKSVI | failed
10 | MLTKSVAVITSTIGRPELERAIQSVQQQTYPCQHYVFVDGVQFAEQAKQILDKYPQVIVTYLPMNTGANGWSNSSINAIAPFLAKEDMICYLDDDNWYEPNHVETCLTCLMQNQLDYVYSYRNLINSVNNHFICRDTFESVGPNKALKLDISSNMLNIAGSIQLHNENHIDTNTYFLTRKVALEASQYWYSGRSNDNNVSNWLLFSAYKGICTKTYSVNYLFDPTTFFNTFYQMICQNTPLNSSEQDKIAILEALIRAISDSQASD | failed
11 | MRELNRLSEEITHILAAGEVVERPASCLKEVIENSIDAGASLIDIKLEKGGIKKIEVYDNGKGIHSDDIEYVFERHTTSKIKSVDDIFKITTMGFRGEALCAISSVSKVTLISRHYEQEQGCKVEVEGGKVLSKTIYPFEKGTRITIEDLFYNTPARLKFLKSPSAEQKYCIEVVEKIAICYPEISFRMQVDNKRQLFTPGDSKVESAIASVFGSEILKNLIDFSHQEEGLKVWGFFVNPVLSKSTRSGYHFYVNRRFIRSKLLSTCIDEAFKNSILTGRFPIVFLFIEINPIDIDVNVHPAKLEIKFKDERYVYNTVYKTVSSTLQSEKMIPKPTLDNLYLPQSVQDVKMVRNLWSYTQEQQSKEKAFQEDFNEFLKIEEQLDFSKVEVGKESKDVITVFSEEFNVETYKIVGYAFDTYIIVQKEDSLYLIDQHAVHERRLFELLKEEIFRNKIQRQILLSPIVIELPISQKEFALENVHIFEKLGFEIDDFGKNEIVVRTYPLLFEGAVDKFFILDIIEMIYNESVEKGITHFSEELLKKIACRAAVKGNMNISDLEKEEIVKLVLVEKKIFNCPHGRPVVIEIQKREIEKMFKRIV | failed
12 | MAVRFASLGSGSDGNALLVESTDGTTSTRILLDCGFGIRETVRRLERLGCAPASLDAILVTHEHGDHIGSAYAFAAKYSVPVWTSHGTYRATASLRGADRAAVRFCRADDAFSIGDLRILPYTVPHDAREPLQFIFDDGARRLGVLTDAGMSTEYLCGHLTGLHAFVLECNHDREMLANSAYPWSLKQRIGGDFGHLANDIAAAILARVRHDGLHTVVAAHLSKQNNTPELAAAAIASALGVPAGDVPIADQEAGLGWQAV | failed
